Measured values taken from publication PMC3025569.

Molecular target: ThaI restriction endonuclease (Thermoplasma acidophilum strain ATCC 25905)
Assay: SEC

ThaI restriction endonuclease (enzyme)
stoichiometry N: 2
